Laboratory results: patent US20180265572A1 (Bristol-Myers Squibb, published 2018)
“And” between values parts separate entries of the source, which are not always exact repeats. Identical values can stand only once.

Legend:
human IGF-IR-Fc fusion [1] = target: T1, human IGF-IR-Fc fusion (human, UniProt P08069 31-932); experiment: SPR (Biacore), IGF-IR-Fc captured on Protein A
T1 construct: range 1-932; If it counts on the precursor, it includes the signal peptide; also called IGF1R-Fc; not shown: hinge and constant regions of human IgG
T1 sequence (P08069 31-932 limits assumed, form in doubt): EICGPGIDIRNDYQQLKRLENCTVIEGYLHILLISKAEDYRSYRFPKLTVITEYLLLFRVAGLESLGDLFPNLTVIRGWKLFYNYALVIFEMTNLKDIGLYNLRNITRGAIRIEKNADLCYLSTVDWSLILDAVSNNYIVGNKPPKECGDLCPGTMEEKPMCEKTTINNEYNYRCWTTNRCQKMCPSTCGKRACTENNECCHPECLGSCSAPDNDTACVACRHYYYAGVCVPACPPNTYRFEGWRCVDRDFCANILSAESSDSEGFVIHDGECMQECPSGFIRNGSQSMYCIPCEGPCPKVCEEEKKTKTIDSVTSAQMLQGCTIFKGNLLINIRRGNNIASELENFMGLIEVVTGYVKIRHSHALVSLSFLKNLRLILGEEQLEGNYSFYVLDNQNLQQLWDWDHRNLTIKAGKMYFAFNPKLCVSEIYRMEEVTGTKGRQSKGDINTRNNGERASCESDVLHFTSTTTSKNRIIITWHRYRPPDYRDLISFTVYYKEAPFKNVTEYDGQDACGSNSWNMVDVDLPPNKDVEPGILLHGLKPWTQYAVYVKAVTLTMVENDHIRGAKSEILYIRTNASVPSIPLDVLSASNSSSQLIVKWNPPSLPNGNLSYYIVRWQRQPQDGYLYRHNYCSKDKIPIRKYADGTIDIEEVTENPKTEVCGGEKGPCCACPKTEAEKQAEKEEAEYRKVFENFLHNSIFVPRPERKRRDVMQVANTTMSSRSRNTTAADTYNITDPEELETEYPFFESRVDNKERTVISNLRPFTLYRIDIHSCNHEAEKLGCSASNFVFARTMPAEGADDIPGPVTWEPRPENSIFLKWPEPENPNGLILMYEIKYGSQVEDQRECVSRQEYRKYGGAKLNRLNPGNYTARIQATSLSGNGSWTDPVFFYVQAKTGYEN
Text: (§1) An alternative method is to capture the IGF—IR-Fc on Protein A. This method was used for calculating the affinity and kinetics of certain versions of the construct 385A08-Fn-V2B-cys (both pegylated and non-pegylated and with or without his tag) from midscale and large scale materials. Specifically, IGF—IR-Fc was captured on Protein A immobilized on a Biacore CM5 sensor chip by amine coupling. VEGFR2-Fc was immobilized directly on a CM5 chip by amine coupling. The affinity and kinetic analysis involved the capture of IGF—IR-Fc on Protein A followed by injection of the tandem adnectin in solution over IGF—IR-Fc and VEGFR2-Fc. The analytical surface was regenerated between samples with glycine pH 1.5. Sensorgrams were obtained at each concentration and were evaluated using Biacore T100 evaluation software to determine the rate constants kₐ (kₒₙ) and kd (koff).

VEGFR2-Fc (R&D Systems) [2] = target: T2, VEGFR2-Fc (R&D Systems) (UniProt P35968 20-764); experiment: SPR (Biacore), immobilized VEGFR2-Fc, midscale purified binder
T2 construct: Bought reagent; not shown: Fc part of the bought fusion; not described
T2 sequence (P35968 20-764 limits assumed): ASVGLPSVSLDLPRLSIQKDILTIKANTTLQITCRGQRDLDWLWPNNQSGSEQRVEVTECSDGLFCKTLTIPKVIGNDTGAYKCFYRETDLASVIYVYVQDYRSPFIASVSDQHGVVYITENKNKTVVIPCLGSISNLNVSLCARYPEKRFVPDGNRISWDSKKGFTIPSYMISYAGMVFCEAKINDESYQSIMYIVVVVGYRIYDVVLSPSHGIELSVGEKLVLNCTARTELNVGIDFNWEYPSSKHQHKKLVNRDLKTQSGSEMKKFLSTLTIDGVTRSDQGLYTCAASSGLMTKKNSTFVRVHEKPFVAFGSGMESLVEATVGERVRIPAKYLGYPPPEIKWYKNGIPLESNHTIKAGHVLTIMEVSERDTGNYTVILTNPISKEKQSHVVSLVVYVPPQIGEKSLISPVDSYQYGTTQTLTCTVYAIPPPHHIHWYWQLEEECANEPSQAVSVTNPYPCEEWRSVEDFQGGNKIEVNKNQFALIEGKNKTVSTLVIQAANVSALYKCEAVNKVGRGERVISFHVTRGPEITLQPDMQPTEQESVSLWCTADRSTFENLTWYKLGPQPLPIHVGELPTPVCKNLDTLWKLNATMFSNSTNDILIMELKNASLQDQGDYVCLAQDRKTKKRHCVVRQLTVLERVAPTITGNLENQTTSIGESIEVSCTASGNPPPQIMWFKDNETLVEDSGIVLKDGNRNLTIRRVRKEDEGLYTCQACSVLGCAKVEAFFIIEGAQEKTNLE

human IGF-IR-Fc fusion [3] = target: T1, human IGF-IR-Fc fusion; experiment: SPR (Biacore), captured IGF1R-Fc, midscale purified binder
[4] = target: T3, VEGFR-2 (KDR) on transfected cells (UniProt P35968 20-1356, limits assumed); experiment: competitive blocking assay on 293:KDR cells; competitor 200 nM IRDye 800CW-labelled Peg-V2Bshort
T3 construct: whole, on cells; also called Flk-1
T3 sequence (P35968 20-1356 limits assumed): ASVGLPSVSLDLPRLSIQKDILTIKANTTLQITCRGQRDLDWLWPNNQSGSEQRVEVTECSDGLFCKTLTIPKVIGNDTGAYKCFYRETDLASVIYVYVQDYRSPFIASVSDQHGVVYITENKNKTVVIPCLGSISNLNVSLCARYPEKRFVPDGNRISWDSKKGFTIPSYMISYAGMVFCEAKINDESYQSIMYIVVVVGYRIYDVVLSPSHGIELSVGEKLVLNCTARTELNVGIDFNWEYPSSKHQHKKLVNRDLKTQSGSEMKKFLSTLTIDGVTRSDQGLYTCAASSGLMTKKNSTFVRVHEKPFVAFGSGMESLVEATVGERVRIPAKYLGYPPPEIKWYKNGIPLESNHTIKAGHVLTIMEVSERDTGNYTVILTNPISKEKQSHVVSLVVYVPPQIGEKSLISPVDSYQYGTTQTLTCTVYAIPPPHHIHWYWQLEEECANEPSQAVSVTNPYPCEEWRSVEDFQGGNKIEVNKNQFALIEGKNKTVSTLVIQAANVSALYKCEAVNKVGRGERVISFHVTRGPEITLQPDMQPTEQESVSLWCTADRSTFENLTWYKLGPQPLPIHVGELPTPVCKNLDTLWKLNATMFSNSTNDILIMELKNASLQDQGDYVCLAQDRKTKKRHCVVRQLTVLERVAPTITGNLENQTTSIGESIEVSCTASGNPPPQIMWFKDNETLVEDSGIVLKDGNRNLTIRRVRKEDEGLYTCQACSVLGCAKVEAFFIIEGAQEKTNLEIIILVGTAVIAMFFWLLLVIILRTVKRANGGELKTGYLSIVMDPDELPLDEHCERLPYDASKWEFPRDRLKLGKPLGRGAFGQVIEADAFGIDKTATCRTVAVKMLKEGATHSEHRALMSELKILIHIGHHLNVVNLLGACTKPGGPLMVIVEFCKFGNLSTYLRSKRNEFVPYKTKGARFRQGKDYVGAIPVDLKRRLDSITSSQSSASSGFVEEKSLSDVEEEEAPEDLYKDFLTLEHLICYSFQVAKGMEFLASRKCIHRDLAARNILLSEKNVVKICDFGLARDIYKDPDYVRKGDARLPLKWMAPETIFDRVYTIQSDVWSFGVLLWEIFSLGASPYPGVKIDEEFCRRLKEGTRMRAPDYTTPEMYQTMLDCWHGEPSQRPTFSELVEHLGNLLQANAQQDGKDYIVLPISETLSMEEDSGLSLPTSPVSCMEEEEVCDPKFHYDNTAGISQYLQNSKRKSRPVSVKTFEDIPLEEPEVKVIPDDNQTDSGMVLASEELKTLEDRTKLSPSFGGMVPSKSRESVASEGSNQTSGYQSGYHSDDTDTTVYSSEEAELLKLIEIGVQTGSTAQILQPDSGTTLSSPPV
Protocol: (§2) Similarly, the pegylated, his-tagged construct 385A08-Fn-V2B-cys was able to block the interaction of a mono-specific ¹⁰Fn3-based VEGFR-2 binder (Peg-V2Bshort, SEQ ID NO: 28) with VEGFR-2 present on 293:KDR cells. […] In particular, in a Ba/F3 assay (described below), the IC₅₀ for the monomeric, non-pegylated VEGFR2 binder V2Bshort (SEQ ID NO: 28) is approximately 0.1-3 nM whereas the IC₅₀ for the monomeric, non-pegylated VEGFR2 binder having SEQ ID NO: 44 (e.g., with an N-terminal extension) is approximately 8-13 nM. […] Both the R⁺ and 293:KDR cell based competitive blocking assays are described in detail in the materials and methods section below.
(§3) 293:KDR (Sibtech, Brookfield, Conn.) were plated in 96 well plates at a concentration of 25,000 cells per well in DMEM (Invitrogen, Carlsbad, Calif.) containing 10% fetal bovine serum (Hyclone, Logan, Utah). The following day, cells were washed twice in serum free DMEM containing 0.1% BSA (Invitrogen, Carlsbad, Calif.). After the washes, the cells were incubated at 4° C. for 10 minutes in binding buffer (serum free DMEM+0.1% BSA) containing increasing concentrations of VEGFR-2 antagonists or controls. Typical controls included the mono-specific ¹⁰Fn3-based VEGFR2 binder (Peg-V2Bshort, SEQ ID NO: 28) (positive control) or the mono-specific ¹⁰Fn3-based IGF-IR binder (AT580-PEG40, SEQ ID NO: 27) (negative control). […]

VEGFR2-Fc (R&D Systems) [5] = target: T2, VEGFR2-Fc (R&D Systems); experiment: SPR (Biacore), VEGFR2-Fc immobilised directly on a CM5 chip
human IGF-IR-Fc fusion [6] = target: T1, human IGF-IR-Fc fusion; experiment: SPR (Biacore), IGF1R-Fc captured on Protein A
Protocol: (§4) Affinity data was also measured from midscale and large scale material, for the pegylated version of the tandem construct 385A08-Fn-V2B-cys (SEQ ID NO: 9, with and without his tag). The specific materials and methods for these calculations are described below.
as §1

[7] = target: VEGFR-2 in cynomolgus monkeys (in vivo); experiment: cell-based or functional assay
[8] = target: VEGFR-2 in nude mice (in vivo) (UniProt P35918 20-1345, limits assumed); experiment: cell-based or functional assay
Chain of VEGFR-2 in nude mice (in vivo) (P35918 20-1345 limits assumed): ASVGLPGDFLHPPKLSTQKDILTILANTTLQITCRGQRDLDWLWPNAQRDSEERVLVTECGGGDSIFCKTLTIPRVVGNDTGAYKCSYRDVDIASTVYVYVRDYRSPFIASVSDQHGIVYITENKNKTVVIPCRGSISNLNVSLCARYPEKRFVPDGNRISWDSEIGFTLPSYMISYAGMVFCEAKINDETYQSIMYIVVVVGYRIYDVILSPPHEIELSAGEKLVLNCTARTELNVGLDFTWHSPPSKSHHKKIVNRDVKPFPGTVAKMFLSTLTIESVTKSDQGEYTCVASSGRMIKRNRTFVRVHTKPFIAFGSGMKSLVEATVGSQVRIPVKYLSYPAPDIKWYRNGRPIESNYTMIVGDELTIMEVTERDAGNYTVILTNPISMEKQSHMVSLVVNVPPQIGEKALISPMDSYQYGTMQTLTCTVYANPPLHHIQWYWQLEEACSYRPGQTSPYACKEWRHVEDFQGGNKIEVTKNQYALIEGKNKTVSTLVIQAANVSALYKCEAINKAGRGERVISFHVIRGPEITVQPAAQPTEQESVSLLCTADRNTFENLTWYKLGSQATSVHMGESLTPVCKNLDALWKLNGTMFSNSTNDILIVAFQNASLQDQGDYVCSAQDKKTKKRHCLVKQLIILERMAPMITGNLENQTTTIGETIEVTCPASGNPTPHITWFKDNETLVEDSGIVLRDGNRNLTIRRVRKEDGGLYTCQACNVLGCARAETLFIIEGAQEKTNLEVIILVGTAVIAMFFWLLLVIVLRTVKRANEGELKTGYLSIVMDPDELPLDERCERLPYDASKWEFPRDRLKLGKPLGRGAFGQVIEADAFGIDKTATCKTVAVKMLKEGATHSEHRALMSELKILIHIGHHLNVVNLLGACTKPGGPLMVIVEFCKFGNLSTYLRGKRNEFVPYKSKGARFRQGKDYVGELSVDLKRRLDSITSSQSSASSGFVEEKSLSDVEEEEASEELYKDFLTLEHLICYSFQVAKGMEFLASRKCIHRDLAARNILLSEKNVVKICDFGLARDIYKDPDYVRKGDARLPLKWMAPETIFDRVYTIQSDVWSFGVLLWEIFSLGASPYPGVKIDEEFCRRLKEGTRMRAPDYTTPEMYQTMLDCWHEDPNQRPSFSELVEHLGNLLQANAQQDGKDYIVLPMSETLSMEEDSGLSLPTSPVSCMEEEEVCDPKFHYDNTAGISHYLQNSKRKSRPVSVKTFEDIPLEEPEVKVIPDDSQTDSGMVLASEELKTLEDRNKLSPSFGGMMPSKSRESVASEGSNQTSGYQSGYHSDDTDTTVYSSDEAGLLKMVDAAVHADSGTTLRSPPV

[9] = target: T3, VEGFR-2 (KDR) on transfected cells; experiment: competitive blocking assay on 293:KDR cells; ratio of the IC50 values
Protocol: as §2, §3

VEGFR2-Fc (R&D Systems) [10] = target: T2, VEGFR2-Fc (R&D Systems); experiment: SPR (Biacore), VEGFR2-Fc immobilized directly on the chip
Protocol: as §4, §1
The functionality of the V2B domain was assessed by evaluating a concentration series of the midscale and large scale purification of the tandem construct 385A08-Fn-V2B (pegylated, and non-pegylated versions, his-tag and non-his-tag versions) vs. VEGFR2-Fc that was directly immobilized on a CM5 chip surface (GE, Piscataway, N.J.). VEGFR2-Fc (R&D Systems, MN) was diluted to 12 ug/mL in 50 mM Acetate pH 5.0 for an immobilization level of ˜1300 RU. Varying concentrations of 385A08-Fn-V2B in the solution phase were monitored for association (2 minutes) and dissociation (10 minutes) kinetics at a flow rate of 50 uL/min. Two 30 second injections of 50 mM glycine pH 1.7 were used to regenerate the surface.

human IGF-IR on cells = target: T4, human IGF-IR on cells (human, UniProt P08069 31-1367); experiment: competitive blocking assay on R+ cells overexpressing human IGF-IR; competitor 200 nM IRDye 800CW-labelled AT580-PEG20-AT580
T4 construct: whole, on cells; also called cell surface IGF-IR
Protocol: Certain tandem constructs were evaluated for their ability to compete with mono-specific IGF-IR and VEGFR-2 binders in vitro.
R⁺, a gift from Renato Baserga (Thomas Jefferson University, Philadelphia, Pa.), is a mouse embryo fibroblast overexpressing human IGF-IR in the context of a deletion in the mouse IGF-IR gene. Cells were plated in 96 well plates at a concentration of 20,000 cells per well in DMEM (Invitrogen, Carlsbad, Calif.) containing 5% calf serum (Hyclone, Logan, Utah). The following day, cells were washed twice in serum free DMEM containing 0.1% BSA (Invitrogen, Carlsbad, Calif.). After the washes, the cells were incubated at 4° C. for 10 minutes in binding buffer (serum free DMEM+0.1% BSA) containing increasing concentrations of IGF-IR antagonists or controls. Typical controls included the mono-specific ¹⁰Fn3-based IGF-IR binder (AT580-PEG40, SEQ ID NO: 27) (positive control) or the mono-specific ¹⁰Fn3-based VEGFR2 binder (Peg-V2Bshort, SEQ ID NO: 28) (negative control). Following this brief exposure to antagonists, R⁺ cells were additionally exposed to 200 nM of a bi-valent ¹⁰Fn3-based IGF-IR binder (AT580-PEG20-AT580, SEQ ID NO: 27) labeled with IRDye 800CW according to the manufacturer instructions (Li-Cor Biosciences, Lincoln, Nebr.). […] The resulting data was analyzed using GraphPad Prism (GraphPad Software, La Jolla, Calif.).

human IGF1R = human IGF1R (human, UniProt P08069 31-932, limits assumed); experiment: method not stated; human IGF1R
Chain of human IGF1R (P08069 31-932 limits assumed): as the sequence (P08069 31-932 limits assumed, form in doubt) above

monkey IGF1R = monkey IGF1R (monkey); experiment: method not stated
rat IGF1R = rat IGF1R (rat, UniProt P24062 31-933, limits assumed); experiment: method not stated; rat IGF1R
mouse IGF1R = mouse IGF1R (mouse, UniProt Q60751 31-933, limits assumed); experiment: method not stated; mouse IGF1R

B1: pegylated, his-tagged 385A08-Fn-V2B-cys (designed binder)
chain: MGVSDVPRDLEVVAATPTSLLISWSARLKVARYYRITYGETGGNSPVQEFTVPKNVYTATISGLKPGVDYTITVYAVTRFRDYQPISINYRTEIDKPSTSTSTVSDVPRDLEVVAATPTSLLISWRHPHFPTRYYRITYGETGGNSPVQEFTVPLQPPTATISGLKPGVDYTITVYAVTDGRNGRLLSIPISINYRTEIDKPCQHHHHHH
modifications: 40 kD PEG on the single cysteine at position 203 (linear PEG in paragraph 246; type of PEG not stated in Example 6)
notes: also called 385A08-Fn-V2B-cys (with PEG and his-tag); linear pegylated, his-tagged 385A08-Fn-V2B-cys
B1 was tested, and the Kd (human IGF-IR-Fc fusion [1]) was 1.2 nM, the koff (VEGFR2-Fc (R&D Systems) [2]) was 0.000149 s⁻¹ and the kon (VEGFR2-Fc (R&D Systems) [2]) was 10600 M⁻¹ s⁻¹. For the same binder, the koff (human IGF-IR-Fc fusion [3]) was 0.000233 s⁻¹, the kon (human IGF-IR-Fc fusion [3]) was 200000 M⁻¹ s⁻¹ and the IC50 [4] was about 140 nM. The Kd (VEGFR2-Fc (R&D Systems) [5]) was 14 nM, the Kd (human IGF-IR-Fc fusion [6]) was 0.831 nM and 0.465 nM and 0.857 nM and the koff (human IGF-IR-Fc fusion [6]) was 0.00025 s⁻¹ and 0.000223 s⁻¹ and 0.000238 s⁻¹. For the same binder, the kon (human IGF-IR-Fc fusion [6]) was 299000 M⁻¹ s⁻¹ and 480000 M⁻¹ s⁻¹ and 277000 M⁻¹ s⁻¹, the “plasma IC50 (grand mean), PK/PD model, monkeys” value [7] was 228 nM and the “plasma IC50, indirect-response PD model, nude mice bearing the Rh41 tumor” value [8] was 13.8 µM. For the same binder, the “fold difference in activity against Peg-V2Bshort” value [9] was 7 fold, the Kd (VEGFR2-Fc (R&D Systems) [10]) was 11 nM and 5.96 nM and 12.6 nM and the koff (VEGFR2-Fc (R&D Systems) [10]) was 9.5e-05 s⁻¹ (2×) and 0.00013 s⁻¹. The kon (VEGFR2-Fc (R&D Systems) [10]) was 8600 M⁻¹ s⁻¹ and 21800 M⁻¹ s⁻¹ and 7530 M⁻¹ s⁻¹ and the IC50 (human IGF-IR on cells) was 900 nM.

B2: 385A08-Fn-V2B-cys (with Peg) (designed binder)
chain: MGVSDVPRDLEVVAATPTSLLISWSARLKVARYYRITYGETGGNSPVQEFTVPKNVYTATISGLKPGVDYTITVYAVTRFRDYQPISINYRTEIDKPSTSTSTVSDVPRDLEVVAATPTSLLISWRHPHFPTRYYRITYGETGGNSPVQEFTVPLQPPTATISGLKPGVDYTITVYAVTDGRNGRLLSIPISINYRTEIDKPCQ
modifications: PEG on the single cysteine at position 203
Work on B2 yielded a Kd (human IGF1R) of 0.277 nM, a Kd (monkey IGF1R) of 0.213 nM and a Kd (rat IGF1R) of 92 nM. The Kd (mouse IGF1R) was 86 nM.
